Assay results taken from patent US20170022281A1 (AbbVie / Abbott, published 2017).

Experiments:
[1] = biological target: T1, mouse PRLR ECD-Fc fusion protein (mouse, UniProt Q08501 20-229); experiment: ELISA on ECD
T1 construct: extracellular domain; not shown: Fc region (captured by goat anti-human Fc)
T1 sequence (looked up): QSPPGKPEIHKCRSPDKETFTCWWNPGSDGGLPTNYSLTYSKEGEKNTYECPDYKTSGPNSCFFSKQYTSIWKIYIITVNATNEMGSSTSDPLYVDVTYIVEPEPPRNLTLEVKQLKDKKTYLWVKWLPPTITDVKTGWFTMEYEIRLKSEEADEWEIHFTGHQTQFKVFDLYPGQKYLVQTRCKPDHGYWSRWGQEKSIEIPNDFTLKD
Outline: (§1)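 PRLR was captured on blocked plates for 1 h, then incubated 1 h with serial antibody dilutions in PBS pH 7.4/0.05% Tween 20 containing 10% Superblock. HRP secondary and TMB gave signal read at 450 nm, and EC50 came from curve fitting.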

[2] = biological target: T2, rat PRLR ECD-Fc fusion protein (rat, UniProt P05710 20-229); experiment: ELISA on ECD
T2 construct: extracellular domain; not shown: Fc region (captured by goat anti-human Fc)
T2 sequence (looked up): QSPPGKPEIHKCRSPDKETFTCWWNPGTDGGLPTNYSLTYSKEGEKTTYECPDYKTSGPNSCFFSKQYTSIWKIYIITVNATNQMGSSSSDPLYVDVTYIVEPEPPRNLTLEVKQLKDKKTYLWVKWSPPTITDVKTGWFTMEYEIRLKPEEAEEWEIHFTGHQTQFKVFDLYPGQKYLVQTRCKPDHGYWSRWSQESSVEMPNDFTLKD
Outline: as §1

human PRLR on cells = biological target: T3, human PRLR on cells (human, UniProt P16471 25-622); experiment: FACS T47D 10 ug/mL
T3 construct: Endogenous on T47D cells, transfected in Baf3-hPRLR cells; also called hPRLR; T47D cells
T3 sequence: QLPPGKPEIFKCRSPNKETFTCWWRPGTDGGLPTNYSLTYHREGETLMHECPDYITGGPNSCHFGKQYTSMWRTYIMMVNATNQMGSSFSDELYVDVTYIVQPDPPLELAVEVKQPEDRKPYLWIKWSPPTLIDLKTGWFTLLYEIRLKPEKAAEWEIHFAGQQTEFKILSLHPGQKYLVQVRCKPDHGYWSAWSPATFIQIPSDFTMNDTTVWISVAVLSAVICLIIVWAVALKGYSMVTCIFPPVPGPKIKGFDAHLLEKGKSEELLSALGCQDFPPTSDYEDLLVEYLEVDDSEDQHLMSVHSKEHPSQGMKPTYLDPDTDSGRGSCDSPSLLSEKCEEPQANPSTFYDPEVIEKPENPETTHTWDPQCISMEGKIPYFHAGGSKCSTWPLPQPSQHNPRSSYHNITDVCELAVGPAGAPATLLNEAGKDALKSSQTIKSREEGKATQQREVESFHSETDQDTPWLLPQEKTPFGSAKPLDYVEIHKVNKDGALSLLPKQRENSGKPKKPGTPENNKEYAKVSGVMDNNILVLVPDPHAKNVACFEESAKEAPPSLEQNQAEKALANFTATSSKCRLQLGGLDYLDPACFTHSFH

[3] = biological target: T4, mouse PRLR on Baf3-mPRLR cells (mouse, UniProt Q08501 20-608); experiment: FACS Baf3-mPRLR 10 ug/mL
T4 construct: whole, on cells
T4 sequence (looked up): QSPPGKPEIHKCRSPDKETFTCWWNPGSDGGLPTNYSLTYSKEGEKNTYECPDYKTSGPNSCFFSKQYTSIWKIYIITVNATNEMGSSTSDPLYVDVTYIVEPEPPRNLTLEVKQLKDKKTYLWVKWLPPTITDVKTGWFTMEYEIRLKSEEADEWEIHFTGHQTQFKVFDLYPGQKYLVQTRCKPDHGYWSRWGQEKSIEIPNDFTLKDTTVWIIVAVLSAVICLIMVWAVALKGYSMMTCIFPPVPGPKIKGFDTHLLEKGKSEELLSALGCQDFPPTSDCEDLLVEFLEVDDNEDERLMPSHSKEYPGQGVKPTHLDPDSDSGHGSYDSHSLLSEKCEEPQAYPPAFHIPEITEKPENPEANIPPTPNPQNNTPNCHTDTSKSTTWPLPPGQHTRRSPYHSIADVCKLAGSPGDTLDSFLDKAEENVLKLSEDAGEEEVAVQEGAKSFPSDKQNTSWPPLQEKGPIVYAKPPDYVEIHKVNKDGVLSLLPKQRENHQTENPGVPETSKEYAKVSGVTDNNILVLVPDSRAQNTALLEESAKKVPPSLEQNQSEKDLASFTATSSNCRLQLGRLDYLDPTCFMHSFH
Method: Nb2-11 and Baf3-xPRLR cells were resuspended in FACS buffer (PBS+1% FBS) at 2 millions cells/mL. Cells were added to round bottom 96-well plate (100 uL/well) and treated with testing PRLR antibodies for 1 hr at 4 C. Cells were then washed with FACS buffer twice and incubated with 2nd antibody conjugated to ALEXA488 (Invitrogen) for 1 hr at 4 C. After two washes in FACS buffer, cells were resuspended in 1% formaldehyde in PBS. Cells were analyzed using LSRII flowcytometer.

[4] = biological target: T5, rat PRLR on Nb2-11 rat lymphoma cells (rat, UniProt P05710 20-610); experiment: cell-based or functional assay
T5 sequence (looked up): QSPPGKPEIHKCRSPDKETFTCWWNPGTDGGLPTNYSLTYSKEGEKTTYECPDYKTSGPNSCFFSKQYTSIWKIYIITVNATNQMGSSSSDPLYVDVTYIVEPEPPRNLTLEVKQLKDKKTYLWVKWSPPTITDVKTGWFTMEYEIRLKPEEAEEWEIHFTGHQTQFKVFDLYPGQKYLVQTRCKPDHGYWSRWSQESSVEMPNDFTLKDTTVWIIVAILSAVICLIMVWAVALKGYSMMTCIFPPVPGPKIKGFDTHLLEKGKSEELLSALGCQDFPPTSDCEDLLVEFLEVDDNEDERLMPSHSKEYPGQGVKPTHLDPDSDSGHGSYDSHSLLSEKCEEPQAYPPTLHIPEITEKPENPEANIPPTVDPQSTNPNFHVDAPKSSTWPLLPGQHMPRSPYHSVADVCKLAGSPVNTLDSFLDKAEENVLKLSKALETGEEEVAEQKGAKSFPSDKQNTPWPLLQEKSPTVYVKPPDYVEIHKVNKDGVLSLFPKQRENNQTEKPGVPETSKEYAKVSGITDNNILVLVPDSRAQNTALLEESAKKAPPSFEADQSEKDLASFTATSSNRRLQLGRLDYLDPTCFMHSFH

B1: Ab12 (antibody, V domains shown)
VH: DVQLQESGPGLVKPSQSLSLTCTVTGYSITSDYAWNWIRQFPGNKLEWMGYIGYSGRTSFNPSLKSRISITRDTSKNQFFLQLNSVTTEDTATYYCARGGFAMDYWGQGTSVTVSS
VL: QIVLTQSPGIMSASPGEKVTMTCSASSSVTYMYWYQQKPRSSPKPWIYLTSNLASGVPARFSGSGSGTSYSLTISSMEAEDGATYYCQQWSSTPPLTFGGGTKLELN
notes: murine monoclonal, isotype G2a; reported as PRLR agonist; also called murine Ab12
- EC50 [1]: 0.121 nM
- EC50 [2]: 0.116 nM
- FACS GeoMean-neg (human PRLR on cells): 1680
- FACS GeoMean-neg [3]: 90

B2: chAb8 (antibody, human IgG1, kappa, V domains shown)
VH: EVQLQQSGPELVKPGASVKISCKASGYTFTDYNIHWVKQSHGKSLEWIGYIYPNNDGTGYNQKFKSKATLTVDNSSSTAYMEVRSLTSEDSAVYYCARGDGNYVGDMDYWGQGTSVTVSS
VL: DIQMTQSPASLSASVGETVTITCRASENIYSYLAWYQQKQGKPPQLLVYNAKTLAEGVPSRFSGGGSGTQFSLKINSLQPEDFGSYYCQHHYATPFTFGSGTKLEIKT
notes: chimeric, murine variable and human G1/kappa constant regions
- EC50 [1]: 1.02 nM
- EC50 [2]: 0.305 nM

B3: LFA102 (antibody, human IgG1, kappa, V domains shown)
VH: EVQLVESGGGLVQPGGSLRLSCAVSGFTFSSYGMSWVRQAPGKRLEWVATVSSGGTYTYYPDSVKGRFTISRDNSKNTLYLQMNSLRAEDTAMYYCARHRGNYYATYYYAMDYWGQGTLVTVSS
VL: DIVLTQSPDSLAVSLGERATINCKASKSVSTSGYTYMHWYQQKPGQPPKLLIYLASNRESGVPDRFSGSGSGTDFTLTISPVQAEDVATYYCQHSGELPPSFGQGTKLEIKR
notes: humanized IgG1 kappa comparator (WO 2008022295)
- EC50 [2]: 0.157 nM
- Nb2-11 proliferation IC50 [4]: 0.93 µg/mL
- FACS GeoMean-neg (human PRLR on cells): 1640
- FACS GeoMean-neg [3]: 4

B4: Ab6 (antibody, V domains shown)
VH: QVQLQQPGAELVMPGSSVKLSCKASGYTFTTYWMHWVKQRPGQGLEWIGEIDPSDSYSNYNQKFKDKATLTVDKSSSTAYMQLSSLTSEDSAVYYCARNGGLGPAWFSYWGQGTLVTVSA
VL: DIVMTQSQKFMSTTVGDRVSITCKASQYVGTAVAWYQQKPGQSPKLLIYSASNRYTGVPDRFTDSGSGTDFTLTISNLQSEDLADYFCQQYSSYPWTFGGGTKLEIK
notes: murine monoclonal, isotype G1; also called murine Ab6
- Nb2-11 proliferation IC50 [4]: > 30 µg/mL
- FACS GeoMean-neg (human PRLR on cells): 1840
- FACS GeoMean-neg [3]: 0

B5: Ab30 (antibody, human IgG1, kappa, V domains shown)
VH: EVQLVQSGAEVKKPGSSVKVSCKASGYTFTSFWMHWVRQAPGQGLEWIGVIDPSDTYTNYNQKFKGRATLTVDESSSTAYMELSSLRSEDTAVYYCARGDYSNWFTYWGQGTLVTVSS
VL: DVVMTQTPLSLSVTPGQPASISCRSSQRLVHSNGNTYLHWYLQKPGQSPQLLIYKVSNRFSGVPDRFSGSGSGTDFTLKISRVEAEDVGVYFCSQSTHVPWTFGGGTKVEIKR
notes: humanized from Ab5; G1; also called Ab2 HC.1a and Ab2 LC.1a
- EC50 [1]: 0.198 nM
- EC50 [2]: 0.423 nM

B6: Ab5 (antibody, V domains shown)
VH: QVQLQQPGAELVRPGTSVKLSCKASGYTFTSFWMHWVKQRPGQGLEWIGVIDPSDTYTNYNQKFKGKATLTVDTSSSTAYMQLSSLTSEDSAVYYCARGDYSNWFTYWGQGTLVTVSA
VL: DVVMTQTPLSLPVSLGDQASISCRSSQRLVHSNGNTYLHWYLQKPGQSPKLLIYKVSNRFSGVPDRFSGSGSGTDFTLKISRVEAEDLGVYFCSQSTHVPWTFGGGTKLEIK
notes: murine monoclonal, isotype G2a; also called murine Ab5
- EC50 [1]: 0.098 nM
- EC50 [2]: 0.08 nM
- Nb2-11 proliferation IC50 [4]: 0.91 µg/mL
- FACS GeoMean-neg (human PRLR on cells): 1610
- FACS GeoMean-neg [3]: 166

B7: chAb5 (antibody, human IgG1, kappa, V domains shown)
VH: QVQLQQPGAELVRPGTSVKLSCKASGYTFTSFWMHWVKQRPGQGLEWIGVIDPSDTYTNYNQKFKGKATLTVDTSSSTAYMQLSSLTSEDSAVYYCARGDYSNWFTYWGQGTLVTVSA
VL: DVVMTQTPLSLPVSLGDQASISCRSSQRLVHSNGNTYLHWYLQKPGQSPKLLIYKVSNRFSGVPDRFSGSGSGTDFTLKISRVEAEDLGVYFCSQSTHVPWTFGGGTKLEIKT
notes: as for B2
- EC50 [1]: 0.12 nM
- EC50 [2]: 0.147 nM
- Nb2-11 proliferation IC50 [4]: 0.69 µg/mL

B8: Ab7 (antibody, V domains shown)
VH: QVQLQQPGAELVMPGTSVKLSCKASGYTFTSYWIHWVKQRPGQGLEWIGEIDPSDSYTNYNQKFKGKATLTVDRSSSTAYMQLSSLTSEDSAVYYCGRSFFTNWFAYWGQGTLVTVSA
VL: DVVMTQTPLSLPVSLGDQASISCRSSQSLVHSNGNTYLHWYLQKPGQSPKLLIYKVSNRFSGVPDRFSGSGSGTDFTLKINRVEAEDLGVYFCSQSTHVPFTFGSGTKLEIK
notes: murine monoclonal, isotype G1; also called murine Ab7
- EC50 [1]: 0.143 nM
- EC50 [2]: 0.135 nM
- Nb2-11 proliferation IC50 [4]: 4.42 µg/mL
- FACS GeoMean-neg (human PRLR on cells): 2380
- FACS GeoMean-neg [3]: 27

B9: Ab13 (antibody, V domains shown)
VH: QVQLQQPGAELVRPGTSVKLSCKASGYTFTSFWMHWVKQRPGQGLEWIGVIDPSDSHTNYNQKFKGKATLTVNTSSSTAYMHLSSLTSEDSAVYYCARGDYSNWFTYWGQGTLVTVSA
VL: DVVMTQTPFSLPVSLGDQASISCRSSQSLVHSNGNTYLHWYLQKPGQSPKLLIYKVSNRFSGVPDRFSGSGSGTDFTLKISRVEAEDLELYFCSQSTHVPWTFGGGTKLEIK
notes: murine monoclonal, isotype G2a; also called murine Ab13
- EC50 [1]: 0.088 nM
- EC50 [2]: 0.085 nM
- Nb2-11 proliferation IC50 [4]: 7.56 µg/mL
- FACS GeoMean-neg (human PRLR on cells): 1500
- FACS GeoMean-neg [3]: 143

B10: chAb7 (antibody, human IgG1, kappa, V domains shown)
VH: QVQLQQPGAELVMPGTSVKLSCKASGYTFTSYWIHWVKQRPGQGLEWIGEIDPSDSYTNYNQKFKGKATLTVDRSSSTAYMQLSSLTSEDSAVYYCGRSFFTNWFAYWGQGTLVTVSA
VL: DVVMTQTPLSLPVSLGDQASISCRSSQSLVHSNGNTYLHWYLQKPGQSPKLLIYKVSNRFSGVPDRFSGSGSGTDFTLKINRVEAEDLGVYFCSQSTHVPFTFGSGTKLEIKT
notes: as for B2
- EC50 [1]: 0.184 nM
- EC50 [2]: 0.157 nM
- Nb2-11 proliferation IC50 [4]: 16.8 µg/mL
